According to PMC12831531 (Cell reports, 2025):
Read-outs that look alike come from different tables or passages of the source.

Columns and labels:
[1] = molecular target: biotinylated human FcRn (human) (UniProt P55899); experiment: BLI; Octet RED96e; biotinylated FcRn on streptavidin biosensors; hu4D5 Fc variants 1000–31.2 nM; PBS pH 6.0, 0.02% Tween 20, room temperature; steady state
[2] = molecular target: t-gp68 (truncated gp68 ectodomain, soluble) (HCMV AD169); experiment: SPR; BIAcore X100; t-gp68-twin strep-FLAG captured (40 RU) on anti-strep Fab; hu4D5 IgG1 Fc variants injected; 2:1 binding kinetics (first constants only) and steady state analysis
[3] = molecular target: hu4D5 human IgG1 antibody with Fc variant G2 (human); experiment: BLI; Octet RED96e; hu4D5 IgG1 variants on CH1-binding (FAB2G) biosensors; CD16A F158 5000–156.25 nM, V158 2000–62.5 nM; room temperature, PBS pH 7.4, 0.02% Tween 20, 0.1% BSA; steady state
[4] = molecular target: hu4D5 human IgG1 antibody with Fc variant G5 (human); experiment: as above
[5] = molecular target: hu4D5 human IgG1 antibody with wild-type Fc (human); experiment: as above
[6] = molecular target: vFcγR on AD169-infected MRC5 cells (Figure 1C); experiment: flow cytometry on cells
[7] = molecular target: human IgG1 Fc (wild type, without Fab arms) (human); experiment: SPR; BIAcore X100; 200 RU human IgG1 Fc immobilised on CM5; t-gp68-strep-FLAG injected 250–3 nM; 1:1 binding kinetics
[8] = molecular target: human IgG1 Fc (wild type, without Fab arms) (human); experiment: as above; remark: listed apart in the source
[9] = molecular target: human IgG1 Fc (wild type, without Fab arms) (human); experiment: negative-stain electron microscopy; purified Fc, gp34-M and t-gp68 combined in various ratios, complexes purified by SEC; 2 mM Tris pH 8.0, 200 mM NaCl; uranyl acetate
[10] = molecular target: HCMV glycoprotein B (gB) on the surface of infected fibroblasts (Human cytomegalovirus AD169, UniProt P06473, strain); experiment: flow cytometry on cells; antibody on AD169-, Δ3- or mock-infected MRC5 fibroblasts, on ice; extracellular antibody detected with goat anti-human Fcγ AF647 (anti-mouse Fcγ for SM5–1-mFc); details: one partner purified

biotinylated human FcRn (human), sequence (P55899 24-297, chain 1 of 2): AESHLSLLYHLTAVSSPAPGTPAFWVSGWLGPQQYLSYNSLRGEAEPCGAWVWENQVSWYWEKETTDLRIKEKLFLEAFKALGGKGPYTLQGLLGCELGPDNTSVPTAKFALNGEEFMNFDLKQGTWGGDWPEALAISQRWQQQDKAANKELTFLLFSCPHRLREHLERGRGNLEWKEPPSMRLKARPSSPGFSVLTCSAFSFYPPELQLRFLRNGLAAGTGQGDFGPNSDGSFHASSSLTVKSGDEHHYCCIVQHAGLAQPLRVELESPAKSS
biotinylated human FcRn (human), sequence (P61769 21-119, chain 2 of 2, further chain): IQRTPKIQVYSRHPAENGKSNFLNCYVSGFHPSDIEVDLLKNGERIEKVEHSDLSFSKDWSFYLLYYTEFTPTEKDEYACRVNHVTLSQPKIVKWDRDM

With “hu4D5 human IgG1 antibody with wild-type Fc” the Kd [1] was 50 nM, the Kd [2] was 80 nM and the ka1 (first step of a 2:1 fit) [2] was 65000 M⁻¹ s⁻¹. It also gave a kd1 (first step of a 2:1 fit) [2] of 0.004 s⁻¹ and a kinetic KD from ka1 and kd1 of a 2:1 fit [2] of 69 nM.

“human CD16A F158 (from UniProt P08637 17-208) (receptor)” was tested, and the Kd [3] was 360 nM, the Kd [4] was 990 nM and the Kd [5] was 1160 nM.

In the case of isotype control 2B1 human IgG1 antibody, the percent of cells positive for extracellular antibody [6] is reported as 30 % cells.

“t-gp68 (truncated gp68 ectodomain, soluble) (domain or fragment)” was tested, and the Kd [7] was 110 nM, the koff [7] was 0.005 s⁻¹ and the kon [7] was 40000 M⁻¹ s⁻¹. It also gave a koff [8] of 0.004 s⁻¹ and a stoichiometry N [9] of 2.

B1: SM5–1 human IgG1 antibody with wild-type Fc (antibody, V domains shown)
VH: QVQLVQSGAEVRKPGASVKVSCKASGYSLKDHYMVWVRQAPGQGLEWMGWINPQSGGTGYGQKFQGRVTMTRDTSTNTAYMILSSLRSDDTAVYFCARDGAKTVSNSGLSLLYYHNRLDAWGQGTMVTVSS
VL: QSVLTQPPSVSAAPGQMVTISCSGSSSNIGKNYVSWYQQLPGAAPKLLIFDNNKRPSGTPDRFSGSKSGTSATLVITGLQTGDEADYYCGTPDRSLSVIFGGGTKVTVL
notes: also called SM5–1 WT; human SM5–1; source: ExpiCHO, purified (Protein A)
With B1 the “percent of cells positive for extracellular antibody” value (from here on “percent of cells positive”) [10] was ~70%.

B2: SM5–1 human IgG1 antibody with Fc variant G2 (antibody, V domains shown)
VH: B1 VH
VL: B1 VL
notes: IgG1; also called SM5–1 with G2; source: ExpiCHO, purified (Protein A)
With B2 the “percent of cells positive” value [10] was ~70%.

B3: SM5–1 human IgG1 antibody with Fc variant G5 (antibody, V domains shown)
VH: B1 VH
VL: B1 VL
notes: IgG1; also called SM5–1 with G5; source: ExpiCHO, purified (Protein A)
B3 was tested, and the “percent of cells positive” value [10] was ~70%.
